Test results: PMC5996960 (Molecular Biology of the Cell, 2018)

Molecular target: T1, His6-tagged yeast cyclin C (S. cerevisiae, UniProt P47821 1-323)
T1 sequence (looked up): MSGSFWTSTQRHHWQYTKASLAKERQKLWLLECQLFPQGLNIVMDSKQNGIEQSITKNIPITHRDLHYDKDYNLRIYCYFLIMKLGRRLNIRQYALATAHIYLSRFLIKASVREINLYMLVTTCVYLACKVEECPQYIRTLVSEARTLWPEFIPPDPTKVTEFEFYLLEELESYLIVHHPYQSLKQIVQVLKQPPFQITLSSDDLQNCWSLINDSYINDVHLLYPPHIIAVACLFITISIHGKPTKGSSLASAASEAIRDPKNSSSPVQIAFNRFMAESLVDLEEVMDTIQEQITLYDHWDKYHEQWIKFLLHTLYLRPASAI
Assay: pull-down

- binding result: binds
B1: GST-Med13^742-844 (domain or fragment, S. cerevisiae, UniProt P38931 742-844, looked up)
chain: DIPQTESPLKTVDSSIQPIESNIKMTLEDNNVTSNPSEFTPNMVNSEISNLPKDKSGIPEFTPADPNLSFESSSSLPFLLRHMPLASIPDIFITPTPVVTISE
